Reference: the supplement of paper PMC9112550, “Optimization of the antimicrobial peptide Bac7 by deep mutational scanning” (BMC Biology, 2022)

tested on: Escherichia coli TOP10; assay: shrunken log2 fold change of peptide-encoding DNA abundance (4.5 h post-induction vs induction); higher = less antimicrobial activity (less host growth inhibition); details: time post-induction: 4.5 h; library: site-saturation at positions 5, 18, 19, 20
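Also: peptides expressed intracellularly from a pBAD plasmid library in pooled LB shake-flask culture, induced with 0.3% L-arabinose, DNA abundance read by NGS, three biological replicates, DESeq2 with apeglm shrinkage.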

Row | Sequence | shrunken log2 fold change
1 | RRIRSRPPRLPRPRPRPKCEPRP | -0.125
2 | RRIRMRPPRLPRPRPRPAAQPRP | 1.12
3 | RRIRHRPPRLPRPRPRPVNAPRP | -0.0381
4 | RRIRVRPPRLPRPRPRPRVLPRP | 0.0884
5 | RRIRIRPPRLPRPRPRPNIYPRP | -0.111
6 | RRIRQRPPRLPRPRPRPAQQPRP | 0.00707
7 | RRIRHRPPRLPRPRPRPEDSPRP | 0.0648
8 | RRIRCRPPRLPRPRPRPQQKPRP | 0.13
9 | RRIRARPPRLPRPRPRPLIRPRP | -0.0546
10 | RRIRYRPPRLPRPRPRPWMNPRP | -0.00197
11 | RRIRFRPPRLPRPRPRPGEAPRP | 0.416
12 | RRIRNRPPRLPRPRPRPYLYPRP | -0.317
13 | RRIRNRPPRLPRPRPRPVVDPRP | -0.274
14 | RRIRDRPPRLPRPRPRPMFEPRP | 0.0172
15 | RRIRDRPPRLPRPRPRPDIWPRP | 0.504
16 | RRIRARPPRLPRPRPRPKNRPRP | 0.134
17 | RRIRSRPPRLPRPRPRPVLPPRP | -0.167
18 | RRIRERPPRLPRPRPRPHSVPRP | -0.00145
19 | RRIRQRPPRLPRPRPRPCGFPRP | -0.0124
20 | RRIRVRPPRLPRPRPRPYCVPRP | -0.125
21 | RRIRNRPPRLPRPRPRPHLNPRP | -0.599
22 | RRIRWRPPRLPRPRPRPFVTPRP | -0.215
23 | RRIRQRPPRLPRPRPRPPYNPRP | -0.154
24 | RRIRIRPPRLPRPRPRPWRSPRP | 0.00683
25 | RRIRLRPPRLPRPRPRPDLFPRP | -0.000844

Row | Sequence | shrunken log2 fold change
26 | RRIRVRPPRLPRPRPRPEFKPRP | 0.0262
27 | RRIRVRPPRLPRPRPRPRPYPRP | 0.179
28 | RRIRSRPPRLPRPRPRPSMVPRP | -0.368
29 | RRIRARPPRLPRPRPRPVDCPRP | 0.26
30 | RRIRVRPPRLPRPRPRPVWYPRP | -0.154
31 | RRIRRRPPRLPRPRPRPFYKPRP | -0.173
32 | RRIRTRPPRLPRPRPRPVMMPRP | -0.199
33 | RRIRERPPRLPRPRPRPFGCPRP | -0.0136
34 | RRIRQRPPRLPRPRPRPLQYPRP | -0.0199
35 | RRIRRRPPRLPRPRPRPRAEPRP | 0.572
36 | RRIRDRPPRLPRPRPRPSGIPRP | -0.0212
37 | RRIRARPPRLPRPRPRPVLLPRP | 0.122
38 | RRIRARPPRLPRPRPRPSMMPRP | 0.162
39 | RRIRYRPPRLPRPRPRPQEPPRP | -0.273
40 | RRIRWRPPRLPRPRPRPFKMPRP | -0.0125
41 | RRIRHRPPRLPRPRPRPAWDPRP | -0.0216
42 | RRIRMRPPRLPRPRPRPTIPPRP | -0.316
43 | RRIRFRPPRLPRPRPRPKGAPRP | -0.0295
44 | RRIRCRPPRLPRPRPRPKRKPRP | 0.157
45 | RRIRTRPPRLPRPRPRPEMGPRP | -0.0368
46 | RRIRCRPPRLPRPRPRPHVWPRP | -0.185
47 | RRIRARPPRLPRPRPRPGCWPRP | 0.965
48 | RRIRIRPPRLPRPRPRPKYYPRP | -0.632
49 | RRIRVRPPRLPRPRPRPQECPRP | -0.00813
50 | RRIRWRPPRLPRPRPRPLRGPRP | 1.01

Row | Sequence | shrunken log2 fold change
51 | RRIRIRPPRLPRPRPRPLSRPRP | -0.243
52 | RRIRKRPPRLPRPRPRPCMKPRP | -0.0153
53 | RRIRQRPPRLPRPRPRPKWFPRP | -0.107
54 | RRIRGRPPRLPRPRPRPYHPPRP | -0.559
55 | RRIRCRPPRLPRPRPRPCCMPRP | -0.392
56 | RRIRWRPPRLPRPRPRPHGEPRP | 0.135
57 | RRIRGRPPRLPRPRPRPHVPPRP | 0.103
58 | RRIRWRPPRLPRPRPRPMQLPRP | 0.12
59 | RRIRERPPRLPRPRPRPSAYPRP | -0.354
60 | RRIRNRPPRLPRPRPRPFKWPRP | -0.224
61 | RRIRPRPPRLPRPRPRPGKWPRP | 0.118
62 | RRIRKRPPRLPRPRPRPCVMPRP | 0.0542
63 | RRIRPRPPRLPRPRPRPHTCPRP | -0.123
64 | RRIRSRPPRLPRPRPRPYPMPRP | -0.035
65 | RRIRMRPPRLPRPRPRPMDKPRP | 0.3
66 | RRIRFRPPRLPRPRPRPNPQPRP | 0.17
67 | RRIRGRPPRLPRPRPRPCIEPRP | 0.0449
68 | RRIRSRPPRLPRPRPRPLDQPRP | -0.0226
69 | RRIRERPPRLPRPRPRPSLKPRP | -0.217
70 | RRIRTRPPRLPRPRPRPMEVPRP | 0.117
71 | RRIRSRPPRLPRPRPRPKAQPRP | 0.103
72 | RRIRPRPPRLPRPRPRPVPFPRP | -0.303
73 | RRIRCRPPRLPRPRPRPRLIPRP | 0.0496
74 | RRIRQRPPRLPRPRPRPLHHPRP | -0.73
75 | RRIRDRPPRLPRPRPRPSYTPRP | -0.302

Row | Sequence | shrunken log2 fold change
76 | RRIRVRPPRLPRPRPRPHMHPRP | -0.517
77 | RRIRDRPPRLPRPRPRPCAAPRP | 0.704
78 | RRIRVRPPRLPRPRPRPIGSPRP | -0.0343
79 | RRIRVRPPRLPRPRPRPVHTPRP | -0.0364
80 | RRIRNRPPRLPRPRPRPPIEPRP | 0.0957
81 | RRIRQRPPRLPRPRPRPGAEPRP | 0.39
82 | RRIRLRPPRLPRPRPRPGGEPRP | 0.343
83 | RRIRKRPPRLPRPRPRPDWMPRP | 0.00417
84 | RRIRFRPPRLPRPRPRPGGCPRP | 0.432
85 | RRIRERPPRLPRPRPRPNCHPRP | -0.336
86 | RRIRCRPPRLPRPRPRPYPWPRP | -1.29
87 | RRIRKRPPRLPRPRPRPDFLPRP | 0.179
88 | RRIRERPPRLPRPRPRPLNRPRP | 0.0599
89 | RRIRARPPRLPRPRPRPMRRPRP | 0.2
90 | RRIRQRPPRLPRPRPRPEMYPRP | -0.173
91 | RRIRPRPPRLPRPRPRPSYRPRP | -0.342
92 | RRIRNRPPRLPRPRPRPRVFPRP | -0.036
93 | RRIRQRPPRLPRPRPRPEDAPRP | -0.132
94 | RRIRNRPPRLPRPRPRPTAHPRP | 0.0105
95 | RRIRIRPPRLPRPRPRPIHVPRP | 0.0502
96 | RRIRTRPPRLPRPRPRPAHTPRP | 0.09
97 | RRIRIRPPRLPRPRPRPLPGPRP | -0.0346
98 | RRIRCRPPRLPRPRPRPVPGPRP | 0.0667
99 | RRIRLRPPRLPRPRPRPFWEPRP | 0.117
100 | RRIRPRPPRLPRPRPRPDGCPRP | -0.228

Row | Sequence | shrunken log2 fold change
101 | RRIRGRPPRLPRPRPRPQFYPRP | 0.0417
102 | RRIRDRPPRLPRPRPRPDCRPRP | 0.249
103 | RRIRGRPPRLPRPRPRPTKMPRP | 0.521
104 | RRIRYRPPRLPRPRPRPMPAPRP | 0.348
105 | RRIRWRPPRLPRPRPRPTHRPRP | 0.8
106 | RRIRIRPPRLPRPRPRPTTRPRP | -0.0487
107 | RRIRGRPPRLPRPRPRPEQMPRP | 0.152
108 | RRIRQRPPRLPRPRPRPYYYPRP | -1.18
109 | RRIRMRPPRLPRPRPRPIKPPRP | -0.231
110 | RRIRMRPPRLPRPRPRPWHPPRP | -0.297
111 | RRIRWRPPRLPRPRPRPPHLPRP | 0.0195
112 | RRIRPRPPRLPRPRPRPQFVPRP | -0.528
113 | RRIRLRPPRLPRPRPRPRTIPRP | 0.0584
114 | RRIRQRPPRLPRPRPRPAHNPRP | -0.0225
115 | RRIRMRPPRLPRPRPRPEASPRP | 3.48
116 | RRIRYRPPRLPRPRPRPHMDPRP | -1.85
117 | RRIRFRPPRLPRPRPRPCMLPRP | -0.591
118 | RRIRTRPPRLPRPRPRPGTIPRP | -0.0982
119 | RRIRQRPPRLPRPRPRPIASPRP | -0.0483
120 | RRIRCRPPRLPRPRPRPMINPRP | -0.53
121 | RRIRHRPPRLPRPRPRPAFLPRP | 0.305
122 | RRIRERPPRLPRPRPRPMVNPRP | -0.0701
123 | RRIRWRPPRLPRPRPRPNPKPRP | 0.0369
124 | RRIRIRPPRLPRPRPRPGIAPRP | -0.184
125 | RRIRTRPPRLPRPRPRPAAKPRP | 0.217

Row | Sequence | shrunken log2 fold change
126 | RRIRGRPPRLPRPRPRPFIVPRP | -0.00433
127 | RRIRKRPPRLPRPRPRPGNDPRP | 0.054
128 | RRIRIRPPRLPRPRPRPPLHPRP | 0.0232
129 | RRIRKRPPRLPRPRPRPNWGPRP | 0.308
130 | RRIRVRPPRLPRPRPRPKMTPRP | -0.0628
131 | RRIRVRPPRLPRPRPRPNAYPRP | -0.572
132 | RRIRKRPPRLPRPRPRPMEFPRP | -0.00102
133 | RRIRYRPPRLPRPRPRPFVSPRP | 0.00884
134 | RRIRKRPPRLPRPRPRPDQCPRP | 0.0219
135 | RRIRMRPPRLPRPRPRPPQRPRP | 1.09
136 | RRIRCRPPRLPRPRPRPALPPRP | 0.143
137 | RRIRGRPPRLPRPRPRPGAMPRP | 1.25
138 | RRIRIRPPRLPRPRPRPRREPRP | 0.123
139 | RRIRSRPPRLPRPRPRPKTWPRP | -0.0488
140 | RRIRQRPPRLPRPRPRPVIHPRP | -0.455
141 | RRIRIRPPRLPRPRPRPRETPRP | 0.0956
142 | RRIRSRPPRLPRPRPRPMAVPRP | -0.000652
143 | RRIRTRPPRLPRPRPRPNFHPRP | -0.19
144 | RRIRSRPPRLPRPRPRPFLMPRP | 3.07
145 | RRIRWRPPRLPRPRPRPMSGPRP | 0.118
146 | RRIRERPPRLPRPRPRPERQPRP | -0.0184
147 | RRIRQRPPRLPRPRPRPMRGPRP | 0.904
148 | RRIRYRPPRLPRPRPRPTQHPRP | -0.309
149 | RRIRMRPPRLPRPRPRPMTAPRP | 0.198
150 | RRIRTRPPRLPRPRPRPGWEPRP | 0.0505
